Measured values: paper PMC9492657, “Metabolic pathway assembly using docking domains from type I cis-AT polyketide synthases” (Nature Communications, 2022)

Key:
[1] = molecular target: D5 NDD-His-tag, biotinylated (N-terminal docking domain of DEBS3, 6-deoxyerythronolide B synthase) (UniProt Q03133); test: BLI; Octet RED96E; biotinylated D5 NDD (100 ug/mL in PBS) immobilised on a streptavidin (SA) biosensor; CDD in solution at variable concentrations in 1x kinetic buffer (PBS pH 7.4, 0.1% BSA, 0.05% Tween 20); 1:1 global model; three repeats
[2] = molecular target: D3 NDD-His-tag (N-terminal docking domain of DEBS2, 6-deoxyerythronolide B synthase) (UniProt Q03132); test: BLI; GatorPrime; NDD-His-tag (100 ug/mL in PBS) immobilised on a Ni-NTA biosensor; CDD in solution at variable concentrations in 1x kinetic buffer (PBS pH 7.4, 0.1% BSA, 0.05% Tween 20); 1:1 global model; three repeats
[3] = molecular target: T1, R5 NDD-His-tag (N-terminal docking domain of RapB, rapamycin polyketide synthase) (Streptomyces rapamycinicus); test: as above; settings: both partners purified
T1 chain: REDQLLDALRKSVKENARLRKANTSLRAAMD

In the case of “Flag-tag-D4 CDD (C-terminal docking domain of DEBS2, 6-deoxyerythronolide B synthase) (from UniProt Q03132 1-3567) (domain or fragment)”, the Kd [1] is reported as 280 nM.

In the case of “Flag-tag-D2 CDD (C-terminal docking domain of DEBS1, 6-deoxyerythronolide B synthase) (from UniProt Q03131 1-3491) (domain or fragment)”, the Kd [2] is reported as 14600 nM.

B1: Flag-tag-R4 CDD (C-terminal docking domain of RapA, rapamycin polyketide synthase) (domain or fragment)
chain: FAPAEPEPRLHEQELRRALAGISIDKFREAGVLDTLLRLAAMEGLAVPKPDSESDDEAFVDEMDADALIKHVLEEER
B1 was tested, and the Kd [3] was 340 ± 30 nM.
